A short description of this series: self-splicing fitness, log relative to wild type (ln ratio); higher = more splicing; Tetrahymena group I intron in knt gene, E. coli kanamycin selection, DiMSum; sequences stand for … in CUCUCU…GGAGGGAAAAGUUAUCAGGCAUGCACCUGGUAGCUAGUCUUUAAACCAAUAGAUUGCAUCGGUUUAAAAGGCAAGACCGUCAAAUUGCGGGAAAGGGGUCAACAGCCGUUCAGUACCAAGUCUCAGGGGAAACUUUGAGAUGGCCUUGCAAAGGGUAUGGUAAUAAGCUGACGGACAUGGUCCUAACCACGCAGCCAAGUCCUAAGUCAACAGAUCUUCUGUUGAUAUGGAUGCAGUUCACAGACUAAAUGUCGGUCGGGGAAGAUGUAUUCUUCUCAUAAGAUAUAGUCGGACCUCUCCUUAAUGGGAGCUAGCGGAUGAAGUGAUGCAACACUGGAGCCGCUGGGAACUAAUUUGUAUGCGAAAGUAUAUUGAUUAGUUUUGGAGUACUCGUGGUCG
In short, it runs like this: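 DiMSum derived fitness as the error-weighted combination of fold changes across replicates, kanamycin versus no kanamycin, normalised to wild type. E. coli BL21(DE3) held the library, which randomised all eight P1ex-region intron nucleotides within the knt kanamycin-resistance gene on pET-22b(+). Six replicate transformations grew overnight at 37°C or 30°C on LB agar with or without 25 μg/mL kanamycin, also containing 100 μg/mL carbenicillin, 50 μM IPTG and 0.2% rhamnose, and pooled colonies were amplicon-sequenced on an Illumina HiSeq 2500.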

± gives the uncertainty stated by the source.

On to GGAAAGCAAUAUUACGCUGC, for which the “self-splicing fitness (ln)” value (30 °C) was -3.32 ± 0.38. For UGGAAGCAAUAUUACGCCAC, the “self-splicing fitness (ln)” value (30 °C) was -2.25 ± 0.42.

With AGCUAGCAAUAUUACGAAUA, the “self-splicing fitness (ln)” value reads like this: (30 °C) -3.3 ± 0.27; (37 °C) -2.35 ± 0.24. The like results for UUGAAGCAAUAUUACGAUGC were, in that order, -4.76 ± 0.39 and -1.58 ± 0.24.

For CACCAGCAAUAUUACGCGAU, the “self-splicing fitness (ln)” value is, setting by setting: (30 °C) -2.55 ± 0.14; (37 °C) -2.61 ± 0.21.

Consider CCUGAGCAAUAUUACGAGCG, for which the “self-splicing fitness (ln)” value runs as follows: (30 °C) -2.57 ± 0.14; (37 °C) -0.727 ± 0.14. The like results for AAUUAGCAAUAUUACGGCAA were, in that order, -0.926 ± 0.14 and -0.497 ± 0.18. The like results for UAAGAGCAAUAUUACGACGG were, in that order, -3.85 ± 0.26 and -2.54 ± 0.21. The like results for UGGAAGCAAUAUUACGGCUC were, in that order, -1.89 ± 0.49 and -1.42 ± 0.36. Take UCAAAGCAAUAUUACGUAUU: the “self-splicing fitness (ln)” value is -3.03 ± 0.14 (30 °C) and -2.13 ± 0.17 (37 °C). The like results for AAUAAGCAAUAUUACGUCGU were, in that order, -0.729 ± 0.079 and -0.613 ± 0.093. Turning to CUUAAGCAAUAUUACGAGAG, the “self-splicing fitness (ln)” value is -4.39 ± 0.42 (30 °C) and -2.48 ± 0.45 (37 °C).

For AUUAAGCAAUAUUACGAACA, the “self-splicing fitness (ln)” value is -1.43 ± 0.14 (30 °C) and -0.718 ± 0.17 (37 °C).

Regarding AUUUAGCAAUAUUACGUUGU, the “self-splicing fitness (ln)” value is -3.01 ± 0.19 (30 °C) and -2.82 ± 0.27 (37 °C).

For CGGCAGCAAUAUUACGACAA, the “self-splicing fitness (ln)” value is -1.99 ± 0.1 (30 °C) and -2.28 ± 0.18 (37 °C). As to GAGGAGCAAUAUUACGUUUC, the “self-splicing fitness (ln)” value (30 °C) is -2.74 ± 0.42. Consider ACCAAGCAAUAUUACGGCAC, for which the “self-splicing fitness (ln)” value is -0.797 ± 0.091 (30 °C) and -0.913 ± 0.11 (37 °C).

Regarding CACGAGCAAUAUUACGGUUG, the “self-splicing fitness (ln)” value is, setting by setting: (30 °C) -3.57 ± 0.15; (37 °C) -1.6 ± 0.12. As for CGUAAGCAAUAUUACGCCUA, for the setting “37 °C”, the “self-splicing fitness (ln)” value is -2.18 ± 0.27.

As for AGAGAGCAAUAUUACGCGAU, where the note is “37 °C”, the “self-splicing fitness (ln)” value is -2.82 ± 0.43.

UCGCAGCAAUAUUACGUGUA: the “self-splicing fitness (ln)” value is, setting by setting: (30 °C) -1.19 ± 0.082; (37 °C) -0.901 ± 0.083. The like results for UUGAAGCAAUAUUACGGGUU were, in that order, -1.66 ± 0.093 and -1.66 ± 0.16. The like results for ACGUAGCAAUAUUACGAUUC were, in that order, -2.39 ± 0.11 and -2.41 ± 0.21. For GAGCAGCAAUAUUACGCCAU, the “self-splicing fitness (ln)” value is -2.67 ± 0.46 (30 °C) and -3.33 ± 0.43 (37 °C). The like results for CCUGAGCAAUAUUACGGUGC were, in that order, -2.51 ± 0.25 and -2.15 ± 0.43. The like results for CGUCAGCAAUAUUACGUCGG were, in that order, -0.413 ± 0.042 and 0.115 ± 0.06. The like results for GCAUAGCAAUAUUACGCACA were, in that order, -0.886 ± 0.11 and 0.000212 ± 0.091.

On to UGUUAGCAAUAUUACGCAGA, for which the “self-splicing fitness (ln)” value was -0.741 ± 0.46 (30 °C) and -0.752 ± 0.3 (37 °C).

For the sequence GGGAAGCAAUAUUACGCUAC, the “self-splicing fitness (ln)” value is -2.26 ± 0.3 (30 °C) and -1.84 ± 0.46 (37 °C). Consider GCACAGCAAUAUUACGUGCU, for which the “self-splicing fitness (ln)” value is -3.6 ± 0.1 (30 °C) and -2.75 ± 0.12 (37 °C). On to CGGAAGCAAUAUUACGGGGU, for which the “self-splicing fitness (ln)” value is -2.39 ± 0.27 (30 °C) and -3.41 ± 0.43 (37 °C). The like results for AUUAAGCAAUAUUACGUCCA were, in that order, -0.883 ± 0.098 and -0.386 ± 0.12. Regarding GAGCAGCAAUAUUACGGAGA, the “self-splicing fitness (ln)” value reads like this: (30 °C) -4.02 ± 0.25; (37 °C) -2.16 ± 0.16.

For GCAUAGCAAUAUUACGGAUU, the “self-splicing fitness (ln)” value runs as follows: (30 °C) -2.81 ± 0.11; (37 °C) -1.29 ± 0.097. Turning to CUUGAGCAAUAUUACGAUCA, for the setting “37 °C”, the “self-splicing fitness (ln)” value is -2.89 ± 0.48.

Consider AGCUAGCAAUAUUACGGUCC, for which the “self-splicing fitness (ln)” value runs as follows: (30 °C) -0.52 ± 0.1; (37 °C) -0.0902 ± 0.14. The like results for ACACAGCAAUAUUACGCGGC were, in that order, -2.29 ± 0.12 and -2.92 ± 0.16.

Regarding ACACAGCAAUAUUACGUCAG, the “self-splicing fitness (ln)” value (30 °C) is -3.58 ± 0.14 and the “self-splicing fitness (ln)” value (37 °C) is -1.67 ± 0.12. With AGCGAGCAAUAUUACGCACU, the “self-splicing fitness (ln)” value runs as follows: (30 °C) -1.62 ± 0.2; (37 °C) -1.37 ± 0.29.

Source of the values: the supplement of paper PMC7877785.
